# FireProtDB (doi:10.1006/jmbi.1997.1365)
# Several values for one entry are separate records, joined by “and”; a condition that tells them apart may be missing. Identical values can stand only once.
# B1: Lysozyme C, P61626 (parent)
# chain: MKALIVLGLVLLSVTVQGKVFERCELARTLKRLGMDGYRGISLANWMCLAKWESGYNTRATNYNAGDRSTDYGIFQINSRYWCNDGKTPGAVNACHLSCSALLQDNIADAVACAKRVVRDPQGIRAWVAWRNRCQNRDVRQYVQGCGV
# Variants of: B1
# Details: Homo sapiens; pH 2.73; Thermal; DSC; glycine 0.05 M; reversible: yes; structure 1LZ1; whole UniProt chain shown
row,Variant,Tm [°C]
1,MKALIVLGLVLLSVTVQGKVFERCELARTLKRLGMDGYRGISLANWMCLAKWESGYNTRATNYNAGDRSTDYGGFQINSRYWCNDGKTPGAVNACHLSCSALLQDNIADAVACAKRVVRDPQGIRAWVAWRNRCQNRDVRQYVQGCGV [I74G],62.7

# Same assay, conditions: Homo sapiens; pH 2.5; Thermal; DSC; glycine 0.05 M; reversible: yes; structure 1LZ1; whole UniProt chain shown
Variant,Tm [°C],heat capacity change of unfolding [kcal/mol/K],unfolding enthalpy (calorimetric) [kcal/mol],unfolding enthalpy (van 't Hoff) [kcal/mol]
MKALIVLGLVLLSVTVQGKVFERCELARTLKRLGMDGYRGISLANWMCLAKWESGYNTRATNYNAGDRSTDYGAFQINSRYWCNDGKTPGAVNACHLSCSALLQDNIADAVACAKRVVRDPQGIRAWVAWRNRCQNRDVRQYVQGCGV [I74A],48.2,1.22,82.8,84

# Same assay, conditions: Homo sapiens; pH 2.67; Thermal; DSC; glycine 0.05 M; reversible: yes; structure 1LZ1; whole UniProt chain shown
Variant,Tm [°C],heat capacity change of unfolding [kcal/mol/K],unfolding enthalpy (calorimetric) [kcal/mol],unfolding enthalpy (van 't Hoff) [kcal/mol]
MKALIVLGLVLLSVTVQGKVFERCELARTLKRLGMDGYRGISLANWMCLAKWESGYNTRATNYNAGDRSTDYGAFQINSRYWCNDGKTPGAVNACHLSCSALLQDNIADAVACAKRVVRDPQGIRAWVAWRNRCQNRDVRQYVQGCGV [I74A],52.3,1.53,89,91.4

# Same assay, conditions: Homo sapiens; pH 2.7; 64.9 °C; Thermal; DSC; glycine 0.05 M; reversible: yes; structure 1LZ1; whole UniProt chain shown
Variant,ddG of mutation (higher = less stable) [kcal/mol],heat capacity change of unfolding [kcal/mol/K],unfolding enthalpy (calorimetric) [kcal/mol],unfolding enthalpy (van 't Hoff) [kcal/mol]
MKALIVLGLVLLSVTVQGKVFERCELARTLKRLGMDGYRGISLANWMCLAKWESGYNTRATNYNAGDRSTDYGAFQINSRYWCNDGKTPGAVNACHLSCSALLQDNIADAVACAKRVVRDPQGIRAWVAWRNRCQNRDVRQYVQGCGV [I74A],3.71,1.34,105,111
MKALIVLGLVLLSVTVQGKVFERCELARTLKRLGMDGYRGISLANWMCLAKWESGYNTRATNYNAGDRSTDYGIFQANSRYWCNDGKTPGAVNACHLSCSALLQDNIADAVACAKRVVRDPQGIRAWVAWRNRCQNRDVRQYVQGCGV [I77A],1.72,1.46,115,121
MKALIVLGLVLLSVTVQGKVFERCELARTLKRLGMDGYRGISLANWMCLAKWESGYNTRATNYNAGDRSTDYGIFQGNSRYWCNDGKTPGAVNACHLSCSALLQDNIADAVACAKRVVRDPQGIRAWVAWRNRCQNRDVRQYVQGCGV [I77G],3.83,1.24,106,110

# Same assay, conditions: Homo sapiens; pH 2.81; Thermal; DSC; glycine 0.05 M; reversible: yes; structure 1LZ1; whole UniProt chain shown
Variant,Tm [°C],heat capacity change of unfolding [kcal/mol/K],unfolding enthalpy (calorimetric) [kcal/mol],unfolding enthalpy (van 't Hoff) [kcal/mol]
MKALIVLGLVLLSVTVQGKVFERCELARTLKRLGMDGYRGISLANWMCLAKWESGYNTRATNYNAGDRSTDYGAFQINSRYWCNDGKTPGAVNACHLSCSALLQDNIADAVACAKRVVRDPQGIRAWVAWRNRCQNRDVRQYVQGCGV [I74A],54.2,1.46,90.7,92.1

# Same assay, conditions: Homo sapiens; pH 2.96; Thermal; DSC; glycine 0.05 M; reversible: yes; structure 1LZ1; whole UniProt chain shown
Variant,Tm [°C],heat capacity change of unfolding [kcal/mol/K],unfolding enthalpy (calorimetric) [kcal/mol],unfolding enthalpy (van 't Hoff) [kcal/mol]
MKALIVLGLVLLSVTVQGKVFERCELARTLKRLGMDGYRGISLANWMCLAKWESGYNTRATNYNAGDRSTDYGAFQINSRYWCNDGKTPGAVNACHLSCSALLQDNIADAVACAKRVVRDPQGIRAWVAWRNRCQNRDVRQYVQGCGV [I74A],58.5,1.6,96.9,102

# Same assay, conditions: Homo sapiens; pH 3.08; Thermal; DSC; glycine 0.05 M; reversible: yes; structure 1LZ1; whole UniProt chain shown
Variant,Tm [°C],heat capacity change of unfolding [kcal/mol/K],unfolding enthalpy (calorimetric) [kcal/mol],unfolding enthalpy (van 't Hoff) [kcal/mol]
MKALIVLGLVLLSVTVQGKVFERCELARTLKRLGMDGYRGISLANWMCLAKWESGYNTRATNYNAGDRSTDYGAFQINSRYWCNDGKTPGAVNACHLSCSALLQDNIADAVACAKRVVRDPQGIRAWVAWRNRCQNRDVRQYVQGCGV [I74A],60.2,1.44,98.8,102

# Same assay, conditions: Homo sapiens; pH 2.49; Thermal; DSC; glycine 0.05 M; reversible: yes; structure 1LZ1; whole UniProt chain shown
Variant,Tm [°C],heat capacity change of unfolding [kcal/mol/K],unfolding enthalpy (calorimetric) [kcal/mol],unfolding enthalpy (van 't Hoff) [kcal/mol]
MKALIVLGLVLLSVTVQGKVFERCELARTLKRLGMDGYRGISLANWMCLAKWESGYNTRATNYNAGDRSTDYGIFQANSRYWCNDGKTPGAVNACHLSCSALLQDNIADAVACAKRVVRDPQGIRAWVAWRNRCQNRDVRQYVQGCGV [I77A],55.9,0.84,101,108
MKALIVLGLVLLSVTVQGKVFERCELARTLKRLGMDGYRGISLANWMCLAKWESGYNTRATNYNAGDRSTDYGIFQGNSRYWCNDGKTPGAVNACHLSCSALLQDNIADAVACAKRVVRDPQGIRAWVAWRNRCQNRDVRQYVQGCGV [I77G],48.1,0.79,84.4,89.7

# Same assay, conditions: Homo sapiens; pH 2.66; Thermal; DSC; glycine 0.05 M; reversible: yes; structure 1LZ1; whole UniProt chain shown
Variant,Tm [°C],heat capacity change of unfolding [kcal/mol/K],unfolding enthalpy (calorimetric) [kcal/mol],unfolding enthalpy (van 't Hoff) [kcal/mol]
MKALIVLGLVLLSVTVQGKVFERCELARTLKRLGMDGYRGISLANWMCLAKWESGYNTRATNYNAGDRSTDYGIFQANSRYWCNDGKTPGAVNACHLSCSALLQDNIADAVACAKRVVRDPQGIRAWVAWRNRCQNRDVRQYVQGCGV [I77A],59.1,1.2,106,114

# Same assay, conditions: Homo sapiens; pH 2.7; Thermal; DSC; glycine 0.05 M; reversible: yes; structure 1LZ1; whole UniProt chain shown
Variant,Tm,"change of melting temperature, mutant - wild type (higher = more stable) [°C]",heat capacity change of unfolding,unfolding enthalpy (calorimetric) [kcal/mol],unfolding enthalpy (van 't Hoff) [kcal/mol]
MKALIVLGLVLLSVTVQGKVFERCELARTLKRLGMDGYRGISLANWMCLAKWESGYNTRATNYNAGDRSTDYGIFQANSRYWCNDGKTPGAVNACHLSCSALLQDNIADAVACAKRVVRDPQGIRAWVAWRNRCQNRDVRQYVQGCGV [I77A],59.7 °C,-5.2,1.46 kcal/mol/K,–,–
MKALIVLGLVLLSVTVQGKVFERCELARTLKRLGMDGYRGISLANWMCLAKWESGYNTRATNYNAGDRSTDYGIFQGNSRYWCNDGKTPGAVNACHLSCSALLQDNIADAVACAKRVVRDPQGIRAWVAWRNRCQNRDVRQYVQGCGV [I77G],52 °C and 52.2 °C,-12.7,0.62 kcal/mol/K and 1.24 kcal/mol/K,90.9,92.8

# Same assay, conditions: Homo sapiens; pH 2.8; Thermal; DSC; glycine 0.05 M; reversible: yes; structure 1LZ1; whole UniProt chain shown
Variant,Tm [°C],heat capacity change of unfolding [kcal/mol/K],unfolding enthalpy (calorimetric) [kcal/mol],unfolding enthalpy (van 't Hoff) [kcal/mol]
MKALIVLGLVLLSVTVQGKVFERCELARTLKRLGMDGYRGISLANWMCLAKWESGYNTRATNYNAGDRSTDYGIFQANSRYWCNDGKTPGAVNACHLSCSALLQDNIADAVACAKRVVRDPQGIRAWVAWRNRCQNRDVRQYVQGCGV [I77A],61.5,1.2,110,115

# Same assay, conditions: Homo sapiens; pH 2.98; Thermal; DSC; glycine 0.05 M; reversible: yes; structure 1LZ1; whole UniProt chain shown
Variant,Tm [°C],heat capacity change of unfolding [kcal/mol/K],unfolding enthalpy (calorimetric) [kcal/mol],unfolding enthalpy (van 't Hoff) [kcal/mol]
MKALIVLGLVLLSVTVQGKVFERCELARTLKRLGMDGYRGISLANWMCLAKWESGYNTRATNYNAGDRSTDYGIFQANSRYWCNDGKTPGAVNACHLSCSALLQDNIADAVACAKRVVRDPQGIRAWVAWRNRCQNRDVRQYVQGCGV [I77A],64.5,1.63,115,120

# Same assay, conditions: Homo sapiens; pH 2.82; Thermal; DSC; glycine 0.05 M; reversible: yes; structure 1LZ1; whole UniProt chain shown
Variant,Tm [°C],heat capacity change of unfolding [kcal/mol/K],unfolding enthalpy (calorimetric) [kcal/mol],unfolding enthalpy (van 't Hoff) [kcal/mol]
MKALIVLGLVLLSVTVQGKVFERCELARTLKRLGMDGYRGISLANWMCLAKWESGYNTRATNYNAGDRSTDYGIFQGNSRYWCNDGKTPGAVNACHLSCSALLQDNIADAVACAKRVVRDPQGIRAWVAWRNRCQNRDVRQYVQGCGV [I77G],54.6,0.65,94.7,97.6

# Same assay, conditions: Homo sapiens; pH 3.02; Thermal; DSC; glycine 0.05 M; reversible: yes; structure 1LZ1; whole UniProt chain shown
Variant,Tm [°C],heat capacity change of unfolding [kcal/mol/K],unfolding enthalpy (calorimetric) [kcal/mol],unfolding enthalpy (van 't Hoff) [kcal/mol]
MKALIVLGLVLLSVTVQGKVFERCELARTLKRLGMDGYRGISLANWMCLAKWESGYNTRATNYNAGDRSTDYGIFQGNSRYWCNDGKTPGAVNACHLSCSALLQDNIADAVACAKRVVRDPQGIRAWVAWRNRCQNRDVRQYVQGCGV [I77G],59.2,0.86,98.6,100

# Same assay, conditions: Homo sapiens; pH 3.16; Thermal; DSC; glycine 0.05 M; reversible: yes; structure 1LZ1; whole UniProt chain shown
Variant,Tm [°C],heat capacity change of unfolding [kcal/mol/K],unfolding enthalpy (calorimetric) [kcal/mol],unfolding enthalpy (van 't Hoff) [kcal/mol]
MKALIVLGLVLLSVTVQGKVFERCELARTLKRLGMDGYRGISLANWMCLAKWESGYNTRATNYNAGDRSTDYGIFQGNSRYWCNDGKTPGAVNACHLSCSALLQDNIADAVACAKRVVRDPQGIRAWVAWRNRCQNRDVRQYVQGCGV [I77G],60.4,0.81,100,102
